# Source: PMC4281115, “pH-Dependent Conformational Changes in the HCV NS3 Protein Modulate Its ATPase and Helicase Activities”
# Key:
# [1] = molecular target: T1, NS3hel (NS3 helicase domain) (Hepatitis C virus genotype 1b …, UniProt Q9WMX2 1193-1657); experiment: fluorescence anisotropy; pH 6.4, 2 mM MgCl2; 25 mM MOPS-NaOH pH 6.4 or 7.2, 2 mM MgCl2, 25 C; 25 nM 5-FAM-dT20 with 0-10 uM NS3hel or 0-5 uM NS3FL, 10 min (anisotropy); 1 uM protein with 0-1 uM ssDNA (Trp); settings: protein: recombinant; tags: N-terminal 6xHis-TEV, cleaved; label: 5'-carboxyfluorescein (5-FAM); single strand
# T1 sequence (Q9WMX2 1193-1657): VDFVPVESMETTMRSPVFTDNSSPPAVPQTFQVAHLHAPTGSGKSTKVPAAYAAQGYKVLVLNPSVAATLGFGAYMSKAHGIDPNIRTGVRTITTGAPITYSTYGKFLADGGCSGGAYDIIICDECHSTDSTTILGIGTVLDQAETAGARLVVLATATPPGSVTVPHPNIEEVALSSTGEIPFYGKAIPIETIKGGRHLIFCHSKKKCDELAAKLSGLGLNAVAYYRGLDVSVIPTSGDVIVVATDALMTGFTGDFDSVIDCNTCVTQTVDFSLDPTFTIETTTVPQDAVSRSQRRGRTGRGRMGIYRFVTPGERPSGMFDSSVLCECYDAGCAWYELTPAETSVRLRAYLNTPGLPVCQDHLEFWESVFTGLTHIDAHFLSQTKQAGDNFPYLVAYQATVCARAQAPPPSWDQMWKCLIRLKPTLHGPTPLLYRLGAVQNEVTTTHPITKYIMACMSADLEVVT
# NS3FL (full-length NS3) [2] = molecular target: T2, NS3FL (full-length NS3) (Hepatitis C virus genotype 1b …, UniProt Q9WMX2 1027-1657); experiment: as above; settings: protein: recombinant; tags: C-terminal 6xHis; label: 5'-carboxyfluorescein (5-FAM); single strand
# T2 sequence (Q9WMX2 1027-1657): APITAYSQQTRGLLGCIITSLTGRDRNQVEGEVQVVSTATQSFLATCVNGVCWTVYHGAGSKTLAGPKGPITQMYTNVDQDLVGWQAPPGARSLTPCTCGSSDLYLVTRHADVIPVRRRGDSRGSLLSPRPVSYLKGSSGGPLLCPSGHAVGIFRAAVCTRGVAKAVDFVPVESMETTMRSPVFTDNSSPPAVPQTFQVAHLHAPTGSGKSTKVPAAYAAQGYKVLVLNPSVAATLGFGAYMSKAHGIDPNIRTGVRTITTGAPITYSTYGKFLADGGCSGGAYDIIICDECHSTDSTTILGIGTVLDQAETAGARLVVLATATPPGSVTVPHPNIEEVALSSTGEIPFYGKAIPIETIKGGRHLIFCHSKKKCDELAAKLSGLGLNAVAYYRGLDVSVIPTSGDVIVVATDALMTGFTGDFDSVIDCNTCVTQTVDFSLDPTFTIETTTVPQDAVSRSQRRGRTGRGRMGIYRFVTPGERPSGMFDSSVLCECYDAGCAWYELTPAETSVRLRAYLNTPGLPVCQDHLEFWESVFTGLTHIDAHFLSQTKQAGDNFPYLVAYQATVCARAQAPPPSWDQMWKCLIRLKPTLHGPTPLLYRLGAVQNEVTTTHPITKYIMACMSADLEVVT
# [3] = molecular target: T1, NS3hel (NS3 helicase domain); experiment: fluorescence anisotropy; pH 7.2, 2 mM MgCl2; 25 mM MOPS-NaOH pH 6.4 or 7.2, 2 mM MgCl2, 25 C; 25 nM 5-FAM-dT20 with 0-10 uM NS3hel or 0-5 uM NS3FL, 10 min (anisotropy); 1 uM protein with 0-1 uM ssDNA (Trp); settings: protein: recombinant; tags: N-terminal 6xHis-TEV, cleaved; label: 5'-carboxyfluorescein (5-FAM); single strand
# NS3FL (full-length NS3) [4] = molecular target: T2, NS3FL (full-length NS3); experiment: as above; settings: protein: recombinant; tags: C-terminal 6xHis; label: 5'-carboxyfluorescein (5-FAM); single strand
binder,measurement,setting,value
TTTTTTTTTTTTTTTTTTTT (ssDNA) [5-FAM oligo(dT)20],Kd,[1],~42 nM
same,Kd,NS3FL (full-length NS3) [2],~28 nM
same,Kd,[3],~254 nM
same,Kd,NS3FL (full-length NS3) [4],~49 nM
